# Experimental data taken from the nanobody polyreactivity screen of Harvey et al. (2022).
# Test: yeast display, Sf9 membrane polyspecificity reagent, FACS + sequencing; frameworks hold sequencing errors
# Method in brief: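 A synthetic nanobody library was expressed on Saccharomyces cerevisiae BJ5465 by galactose induction for 36–48 hours. The library was stained for 1 hour at 4 °C with 10% biotinylated, detergent-solubilized Sf9 membrane reagent and enriched with streptavidin microbeads before FACS. Low and high (top ~1%) gates were set on anti-HA fluorescence for expression and streptavidin fluorescence for reagent binding, and each polyreactivity label reflects the gate of origin.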
row,Sequence,polyreactivity (PSR sort gate)
1,QVHLVESGGGLVQAGGSLRLSCAASGSILQRNAMGWYRQAPGKERELVASITFSAGRTYYADSVKGRFTISRDNAKNTVYLQMKSLKPEDTAVYYCAADPYSYGARGARGDYWGQGTQVSVSS,low polyreactivity
2,QVHLVESGGGLVQAGGSLRLSCAASGSISGLYAMGWYRQAPGKETELVAAISFSAGSTYYADSVKGRFTISRDNAKNTVYFQMNSLKPEDTAVYYCAADGQYGGVPNTSEWTFDYWGQGTQVTVSS,low polyreactivity
3,QVHLVESGGGLVQAGGSLRLSCAASGSISVWYVIVWYRQAPGKERELVAAITRSGGSTFYADSVKGRFTISRDNAKNTVYLQMNSLKPEDTAVYYCAASFRDDFPQRLDYWGQGTQVTVSS,low polyreactivity
4,QVHLVESGGGLVQAGGSLRLSCAASGSLSVRNVMGWYSQAPGKERELVATIRRSGGSTSYADSVKGRFTISRDNSKNSVYLQMNSLKPEDTAVYYCAAVVYTTYRRYDYWGQGTQVNVSS,low polyreactivity
5,QVHLVESGGGLVQAGGSLRLSCAASGSNFKGNAMGWYRQAPGKERELVAAINRSGTSTYYADSVKGRFTISRDNAKKTVYLQMNSLKPEDTAVYYCAKKYFGHRFDYWGQGTQVTVSS,high polyreactivity
6,QVHLVESGGGLVQAGGSLRLSCAASGSTFGYNAMGWYRQAPGKVWELVAVISYSGGSPYYADSVKGRFTLSRDNAKNTVSLQMNSLKPADTAVYYCAKRALTSTRYRVKYDSWGQGTQVTVAS,high polyreactivity
7,QVHLVESGGGLVQAGGSLRLSCAASGSTFLGYAMGWYRQAPGKERELVAAISWSGGTTYYADSVKGRFTISRDNAKNTVYFQMISQKPEDTAVYYCNVYTRGRYEYWGQGTQVTVSS,low polyreactivity
8,QVHLVESGGGLVQAGGSLRLSCAASGSTFPVNAMGWYRQAPGKERELVAAIRSSTGRTYYADSVKGRFTISRDNAKNSVYLQMNSLKPEDTAVYNFAAEGDYYDFISPPLDYWGQGTQVTVSS,low polyreactivity
9,QVHLVESGGGLVQAGGSLRLSCAASGSTFRRYARAWYRQAPGKERELVAAITWRGGSTYYADSVKGRFTISRDNAKNTVYLQMNSLKPEDNAVYYCAADRYPYQYNYWGQGTLVTVSS,high polyreactivity
10,QVHLVESGGGLVQAGGSLRLSCAASGSTFRVYAMGWYRQAPGKERELVARISITGGTTRYADSVKGRFTISRDNAKNTVYLQMNSLKPEDTAVYYCNADYDWYYWYLYKYPFDYWGQGTQVTVSS,low polyreactivity
11,QVHLVESGGGLVQAGGSLRLSCAASGSTFSGYAMGWYRQAPGKERELVATITRRGGNTYYADSLKGRFTISRDNAKNTVYLQMNSLKPEDTAVYYCAKDGRVHSPYDYWGQGTQVTVSS,low polyreactivity
12,QVHLVESGGGLVQAGGSLRLSCAASGSTFVGYAMGWYRQAPGKERELVAAISGGDSTYYADSVKGRFTISRDNAKNTVYLQMNSLKPEDTAVYYCNADYGDTFEYDYWGQGTQVTVSS,low polyreactivity
13,QVHLVESGGGLVQAGGSLRLSCAASGSTFYTYVMGWYRQAPGKERELVAAISEDDGNTYYADSVKGRFTISRDNAKNTVYLQMNSLKPEDTAVYYCAADWEDDLAYSAYDYWGQGTQVTVSS,high polyreactivity
14,QVHLVESGGGLVQAGGSLRLSCAASGSTLYTYGMGWYRQAPGKERELVASISWRAARTYYADSVKGRFTISRDNAKNTVYLQMNSLKPEDTAVYYCNADYYIAPYDSWGQGTQVTVSP,low polyreactivity
15,QVHLVESGGGLVQAGGSLRLSCAASGYIFDIYAMGWYRQAPGKERELVAVITRSGGGTYYADSVKGRFTISRDNAKNTVYLQMNSLKPEDTAVYYCAAESYVYGGSDYDYWGQGTQVTVSS,low polyreactivity
16,QVHLVESGGGLVQAGGSLRLSCAASGYIFQYYAMGWSRQAPGKERELVAAITGGGSTKYADSVKGRFTISRDNAKNTVYLHMNSLKPEDTAVYYCAASLWYRISKYDYWGLGTQVTVSS,high polyreactivity
17,QVHLVESGGGLVQAGGSLRLSCAASGYTDYAMGWYRKAPGKERELVATITSGDNTNYADSVKGRFTSSRDNAKNTVYLQMNSLKAEDTAVYYCAAVYGLHYGIDYWGQGTQVNVSS,low polyreactivity
18,QVHLVESGGGLVQAGGSLRLSCAATGRTFIIYTMAWYRQAPGKESEFVAAITRSGGGTYYADSVKGRFTISRDNAKNTVYLQMNSQKPEDTAVYYCAAVRFYDQAYDYWGQGTQVTVSS,low polyreactivity
19,QVHLVESGGGLVQAGGSLRLSCAAYGRSFSSNAMGWYGQAPGKERELVAAISSSGAGTYYADSVKGRFTISRDNAKNTVYLQMNRLKPEDTAVYYCAARANSYHSFTSHYDYWGQGTQVTLSS,low polyreactivity
20,QVHLVESGGGLVQAGGSLRLSCADSGRIFYQYAMGWYRQQPGKESELVARITSGGGTNYADSVKGRFSISRDNAKYTVYLQMNSLKPEDTAVYYCAAGPWYYSYPDYYWGQGTQVTVSS,high polyreactivity

row,Sequence,polyreactivity (PSR sort gate)
1,QVHLVESGGGLVQAGGSLRLSCADYGRTFSRYAMGWYRQAPGKERELVATINSRAGITNYPDTVKGRFTISRDNAKNTVYLQMTSLKPEDTAVYYCNRGRPGGPSWYHFDYWGQGSQVTVSS,high polyreactivity
2,QVHLVESGGGLVQAGGSLRLSCASSGGTFPPNTMGWYRQAPGKEREFVAAITWRGSSTYYADSVKGRFTISRDNAKITFFLQMNSLKPEDSAVDYCAARRAYERMGFWGQGTQVTVSS,high polyreactivity
3,QVHLVESGGGLVQAGGSLRLSCDASGSTFLSNAMGWYRQAPGKERELVAAITTSGTSTFYADSVKGRFTISRDTAKNTVYLQMNSLKPEDTAVYCAKDYLPYLHFVAPSTGDYDYWGQGTQVTVSS,low polyreactivity
4,QVHLVESGGGLVQAGGSLRLSCDATGFTFQEYAMGWYRQAPGKERELVAAISTSGDSTYYADSVKGRFTISRDNAKNTVYLQMKSLKPEDNAVYYCATAYEDLDAGVLYDYWGQGTQVTVSS,low polyreactivity
5,QVHLVESGGGLVQAGGSLRLSCHASGSNFYSYGLGSYRQAPGKERELVAAITSSGGGTYYADSVKGGFTISRDNAKNTVYLQMHSLKPEDTAVYYCNADHFSDNSSTQYDYWGQGTQVTVSS,low polyreactivity
6,QVHLVESGGGLVQAGGSLRLSCPASGRIFDWYAMGCYRQAPGKEREFVAVIDSSGGTYYADSVKGRFTISRDNAKNTVYLQMNSLKPEDTAVYYCAAEYGWWSFPEYDYWGQGTQVTVSS,low polyreactivity
7,QVHLVESGGGLVQAGGSLRLSCSASGRTFPKYAMGWYRQAPGKERELVAAINKSGGSRYYADSVKGRFTISRDYAKNTVYLQMNSLKPEDTAVYYCAADWRGWSFFRGDDYWGQGTQVTVSS,high polyreactivity
8,QVHLVESGGGLVQAGGSLRLSCSASGSIFRLNAMGWYRQAPGKERELVAAITWSDSSTYYADSVKGRFTISRDNAKNTVYLQMNSLKPVDTAVYYCAADPQSYKYDYWGQGTQVTVSS,low polyreactivity
9,QVHLVESGGGLVQAGGSLRLSSAASGFIFGKNDMGWYRQAPGKERELVAAITIGGSTNYADSVKGRFTISRDNAKNTVYLQLNSLKPEDTAVYYCAADSSSLYNYWGQGTQVTVSS,low polyreactivity
10,QVHLVESGGGLVQAGGSLRLSSAASGLIFYHYAMGWYRQAPGNERELVAAITKRGGSTYYADSVKGRFTISRDNAKNTVYLQINSLKQEDTAVYYCAADGVRYTQSFEMYWGQGTQVTVSS,high polyreactivity
11,QVHLVESGGGLVQAGGSLRLSSAASGRIFPWNAMGWYRQAPGKERELVAAISFSAGRTYYADSVKGRFTISRDNAKNTVYLQMNSLKPEDTAVYYCNARIGSRGVWTGIIGYEYWGQGTQVTVSS,low polyreactivity
12,QVHLVESGGGLVQAGGSLRLSWAASGRNFTRYAMGWYSQAPGKERELVASIRHSGGSTYYADSVKGRFTISRDNAKKTVYLLINSLKPEDTADFYCAARGKKGTRYKYNYWGQRTQVTVSS,high polyreactivity
13,QVHLVESGGGLVQAGGSLRLTCAASGSIFSYAMGWYRQAPGKESELVAAISSGGGRTYYADSVKGRFTISRDNAKNTVYLQMNRLKPEDTAVYFCAAVGLPQGRYGYWGQGTQVTLSS,high polyreactivity
14,QVHLVESGGGLVQAGGSLRLTCAASGSIFTYNAMGWYRQAPGKEREFVAAISRCGGNTKYADSVKGRFTISRDNAKNTVYFQMNSLKPEDTAVYYCAVRTIAYSGFRYNYWGQGTQVTVSS,high polyreactivity
15,QVHLVESGGGLVQAGGSLSLSCDASGYIISSYVMGWYRQAPGKERELVAAISRRGGSTYYADSVKGRFTISRDNAKNTVYLQMNSLIPEDTAVYYCAADGLSGYGSGRYYGMGYCGQGTQVTVSS,high polyreactivity
16,QVHLVESGGGLVQAGGSRRLSCAASGFTLSYYAMGWYRQAPGKERELVATISRVGTTYADSVKGRFTISRDNAKNTVYLQMNSLKPEDTAVYYCAVRSRWPYYFTRGVREGDYWGQGTQVTVSS,high polyreactivity
17,QVHLVESGGGLVQAGGTLRLRCAASGSTFVYNDMGWYRQAPGKERELVAAISTSGGSTYYADSVKGRFTISRDNAKNTVYLQMNSLKPEDTAVYFCAVDSYYFGYWAIQWEGDYWGQGTQVTVSS,low polyreactivity
18,QVHLVESGGGLVQAGGTLRLSCAASGRIFHPNEMRWYRQAPGKEWELVAAISWRGTSTYADSVKGRFTISRDNAKNTVYLQMNSLKPEDTAVYYCVRRYTGLPGWSSYGSYESGYWGQGTQVTVSS,high polyreactivity
19,QVHLVESGGGLVQAGRSLRLICAASGSTFPTYAMGWYRQAPGKETELVAAISTRGGSTYYADSVKGRFTISRDNAKNTVYLQMNSVKPEDTAVYYCATGKTVGRYHYEYWGQGTQVTVSS,low polyreactivity
20,QVHLVESGGGLVQAGVSLRLSCAASGLTFGPYAMGWYRQAPGKERELVAAITSGGNTNYADSVKGRFTISRDNAKNTVYLQMNSLKPEDTAVYYCATSYYLAYRSITPYDYWGQGTQVTVSS,low polyreactivity
